Article PMC4663120

Molecular target: FhuA ΔC/Δ5L (E. coli) (UniProt P06971)
Test: single-channel electrical recording on planar lipid bilayer

For “nucleocapsid protein 7 (NCp7) (natural protein)”, the duration of transient current blockades was less than 1 ms.
